From US20160264649A1
Numbering of substitutions follows the chain as printed.

Key:
Experiment in all cases: cell-based or functional assay
[1] = biological target: HIV-1 Env of pseudovirus isolate MGRM-G-028 (subtype G) (HIV-1)
[2] = biological target: HIV-1 Env of isolate MGRM-D-024 (subtype D) (HIV-1)
[3] = biological target: HIV-1 Env of isolate MGRM-F1-014 (subtype F) (HIV-1)
[4] = biological target: HIV-1 Env of isolate MGRM-D-029 (subtype D) (HIV-1)
[5] = biological target: HIV-1 Env of isolate 92UG046 (subtype D) (HIV-1)
[6] = biological target: HIV-1 Env of pseudovirus isolate MGRM-G-016 (subtype G) (HIV-1)
[7] = biological target: HIV-1 Env of isolate MGRM-F1-008 (subtype F) (HIV-1)
[8] = biological target: HIV-1 Env of isolate MGRM-F1-022 (subtype F) (HIV-1)
[9] = biological target: HIV-1 Env of isolate MGRM-F1-016 (subtype F) (HIV-1)
[10] = biological target: HIV-1 Env of isolate 98CN009 (subtype CRF07_BC) (HIV-1)
[11] = biological target: HIV-1 Env of isolate MGRM-F1-006 (subtype F) (HIV-1)
[12] = biological target: HIV-1 Env of pseudovirus isolate MGRM-G-027 (subtype G) (HIV-1)
[13] = biological target: HIV-1 Env of pseudovirus isolate MGRM-G-001 (subtype G) (HIV-1)
[14] = biological target: HIV-1 Env of pseudovirus isolate MGRM-G-017 (subtype G) (HIV-1)
[15] = biological target: HIV-1 Env of isolate 98CN006 (subtype CRF08_BC) (HIV-1)
[16] = biological target: HIV-1 Env of isolate 92UG005 (subtype D) (HIV-1)
[17] = biological target: HIV-1 Env of isolate MGRM-D-011 (subtype D) (HIV-1)
[18] = biological target: HIV-1 Env of isolate MGRM-D-019 (subtype D) (HIV-1)
[19] = biological target: HIV-1 Env of pseudovirus isolate MGRM-G-015 (subtype G) (HIV-1)
[20] = biological target: HIV-1 Env of isolate MGRM-D-013 (subtype D) (HIV-1)
[21] = biological target: HIV-1 Env of isolate MGRM-D-018 (subtype D) (HIV-1)
[22] = biological target: HIV-1 Env of isolate MGRM-D-016 (subtype D) (HIV-1)
[23] = biological target: HIV-1 Env of isolate MGRM-F1-015 (subtype F) (HIV-1)
[24] = biological target: HIV-1 Env of pseudovirus isolate MGRM-G-019 (subtype G) (HIV-1)
[25] = biological target: HIV-1 Env of isolate MGRM-D-001 (subtype D) (HIV-1)
[26] = biological target: HIV-1 Env of isolate MGRM-D-012 (subtype D) (HIV-1)
[27] = biological target: HIV-1 Env of isolate MGRM-D-021 (subtype D) (HIV-1)
[28] = biological target: HIV-1 Env of isolate MGRM-F1-023 (subtype F) (HIV-1)
[29] = biological target: HIV-1 Env of isolate MGRM-F1-020 (subtype F) (HIV-1)
[30] = biological target: HIV-1 Env of pseudovirus isolate MGRM-G-014 (subtype G) (HIV-1)
[31] = biological target: HIV-1 Env of isolate MGRM-D-022 (subtype D) (HIV-1)
[32] = biological target: HIV-1 Env of isolate MGRM-D-003 (subtype D) (HIV-1)
[33] = biological target: HIV-1 Env of isolate MGRM-F1-021 (subtype F) (HIV-1)
[34] = biological target: HIV-1 Env of isolate MGRM-D-008 (subtype D) (HIV-1)
[35] = biological target: HIV-1 Env of isolate MGRM-F1-018 (subtype F) (HIV-1)
[36] = biological target: HIV-1 Env of pseudovirus isolate MGRM-G-013 (subtype G) (HIV-1)
[37] = biological target: HIV-1 Env of pseudovirus isolate MGRM-G-025 (subtype G) (HIV-1)
[38] = biological target: HIV-1 Env of pseudovirus isolate MGRM-G-004 (subtype G) (HIV-1)
[39] = biological target: HIV-1 Env of isolate MGRM-D-004 (subtype D) (HIV-1)
[40] = biological target: HIV-1 Env of isolate 92UG024 (subtype D) (HIV-1)
[41] = biological target: HIV-1 Env of pseudovirus isolate MGRM-G-024 (subtype G) (HIV-1)
[42] = biological target: HIV-1 Env of isolate MGRM-F1-004 (subtype F) (HIV-1)
[43] = biological target: HIV-1 Env of isolate MGRM-D-026 (subtype D) (HIV-1)
[44] = biological target: envelope of aMLV pseudovirus (negative control)
[45] = biological target: HIV-1 Env of isolate MGRM-F1-010 (subtype F) (HIV-1)
[46] = biological target: HIV-1 Env of isolate MGRM-D-005 (subtype D) (HIV-1)
[47] = biological target: HIV-1 Env of pseudovirus isolate MGRM-G-011 (subtype G) (HIV-1)
[48] = biological target: HIV-1 Env of isolate MGRM-D-028 (subtype D) (HIV-1)
[49] = biological target: HIV-1 Env of isolate MGRM-D-002 (subtype D) (HIV-1)
[50] = biological target: HIV-1 Env of isolate MGRM-F1-012 (subtype F) (HIV-1)
[51] = biological target: HIV-1 Env of isolate MGRM-F1-017 (subtype F) (HIV-1)
[52] = biological target: HIV-1 Env of pseudovirus isolate MGRM-G-009 (subtype G) (HIV-1)
[53] = biological target: HIV-1 Env of isolate MGRM-D-014 (subtype D) (HIV-1)
[54] = biological target: HIV-1 Env of pseudovirus isolate MGRM-G-006 (subtype G) (HIV-1)
[55] = biological target: HIV-1 Env of isolate 92UG114 (subtype D) (HIV-1)
[56] = biological target: HIV-1 Env of isolate MGRM-F1-013 (subtype F) (HIV-1)
[57] = biological target: HIV-1 Env of isolate MGRM-D-020 (subtype D) (HIV-1)
[58] = biological target: HIV-1 Env of isolate 92UG001 (subtype D) (HIV-1)

B1: PGT-126 (antibody, V domains shown)
VH: QPQLQESGPGLVEASETLSLTCTVSGDSTAACDYFWGWVRQPPGKGLEWIGGLSHCAGYYNTGWTYHNPSLKSRLTISLDTPKNQVFLKLNSVTAADTAIYYCARFDGEVLVYHDWPKPAWVDLWGRGTLVTVSS
VL: QSALTQPPSASGSPGQSISISCTGTSNRFVSWYQQHPGKAPKLVIYGVNKRPSGVPDRFSGSKSGNTASLTVSGLQTDDEAVYYCSSLVGNWDVIFGGGTKLTVL
In the case of B1, the IC50 [1] is reported as 0.012 µg/mL, the IC50 (neutralization) [2] is reported as 0.376 µg/mL and the IC50 (neutralization) [3] is reported as greater than 50 µg/mL. It also gave an IC50 (neutralization) [4] greater than 50 µg/mL, an IC50 (neutralization) [5] greater than 50 µg/mL and an IC50 [6] greater than 50 µg/mL. For the same binder, the IC50 (neutralization) [7] was greater than 50 µg/mL, the IC50 (neutralization) [8] was greater than 50 µg/mL and the IC50 (neutralization) [9] was greater than 50 µg/mL. The IC50 (neutralization) [10] was 0.019 µg/mL, the IC50 (neutralization) [11] was 0.078 µg/mL and the IC50 [12] was 0.875 µg/mL. For the same binder, the IC50 [13] was 0.038 µg/mL, the IC50 [14] was greater than 50 µg/mL and the IC50 (neutralization) [15] was 0.046 µg/mL. It also gave an IC50 (neutralization) [16] of 0.037 µg/mL, an IC50 (neutralization) [17] of 0.009 µg/mL and an IC50 (neutralization) [18] greater than 50 µg/mL. It also gave an IC50 [19] greater than 50 µg/mL, an IC50 (neutralization) [20] greater than 50 µg/mL and an IC50 (neutralization) [21] of 0.009 µg/mL. For the same binder, the IC50 (neutralization) [22] was greater than 50 µg/mL, the IC50 (neutralization) [23] was greater than 50 µg/mL and the IC50 [24] was 0.018 µg/mL. For the same binder, the IC50 (neutralization) [25] was 0.084 µg/mL, the IC50 (neutralization) [26] was greater than 50 µg/mL and the IC50 (neutralization) [27] was 0.047 µg/mL. For the same binder, the IC50 (neutralization) [28] was 0.009 µg/mL, the IC50 (neutralization) [29] was greater than 50 µg/mL and the IC50 [30] was 0.009 µg/mL. It also gave an IC50 (neutralization) [31] greater than 50 µg/mL, an IC50 (neutralization) [32] of 0.021 µg/mL and an IC50 (neutralization) [33] greater than 50 µg/mL. The IC50 (neutralization) [34] was 43.1 µg/mL, the IC50 (neutralization) [35] was 14.9 µg/mL and the IC50 [36] was 48.8 µg/mL. It also gave an IC50 [37] of 17.1 µg/mL, an IC50 [38] greater than 50 µg/mL and an IC50 (neutralization) [39] greater than 50 µg/mL. The IC50 (neutralization) [40] was greater than 50 µg/mL, the IC50 [41] was greater than 50 µg/mL and the IC50 (neutralization) [42] was 0.063 µg/mL. For the same binder, the IC50 (neutralization) [43] was greater than 50 µg/mL, the IC50 [44] was greater than 50 µg/mL and the IC50 (neutralization) [45] was greater than 50 µg/mL. For the same binder, the IC50 (neutralization) [46] was 0.792 µg/mL, the IC50 [47] was 7.32 µg/mL and the IC50 (neutralization) [48] was greater than 50 µg/mL. The IC50 (neutralization) [49] was 0.039 µg/mL, the IC50 (neutralization) [50] was 0.3 µg/mL and the IC50 (neutralization) [51] was greater than 50 µg/mL. For the same binder, the IC50 [52] was greater than 50 µg/mL, the IC50 (neutralization) [53] was 0.03 µg/mL and the IC50 [54] was greater than 50 µg/mL. The IC50 (neutralization) [55] was 0.038 µg/mL, the IC50 (neutralization) [56] was greater than 50 µg/mL and the IC50 (neutralization) [57] was 0.023 µg/mL. It also gave an IC50 (neutralization) [58] greater than 50 µg/mL.

B2: PGT-127 (antibody, V domains shown)
VH: QPQLQESGPGLVEASETLSLTCTVSGDSTGRCNYFWGWVRQPPGKGLEWIGSLSHCRSYYNTDWTYHNPSLKSRLTISLDTPKNQVFLRLTSVTAADTATYYCARFGGEVLVYRDWPKPAWVDLWGRGTLVVTVS
VL: B1 VL with S19T, R28N, H36Y, G47E, N66S, T77A, A81G
B2 was tested, and the IC50 [1] was 0.032 µg/mL, the IC50 (neutralization) [2] was 1.95 µg/mL and the IC50 (neutralization) [3] was greater than 50 µg/mL. The IC50 (neutralization) [4] was greater than 50 µg/mL, the IC50 (neutralization) [5] was greater than 50 µg/mL and the IC50 [6] was greater than 50 µg/mL. For the same binder, the IC50 (neutralization) [7] was greater than 50 µg/mL, the IC50 (neutralization) [8] was greater than 50 µg/mL and the IC50 (neutralization) [9] was greater than 50 µg/mL. The IC50 (neutralization) [10] was 0.09 µg/mL, the IC50 (neutralization) [11] was 7.17 µg/mL and the IC50 [12] was greater than 50 µg/mL. For the same binder, the IC50 [13] was 0.113 µg/mL, the IC50 [14] was greater than 50 µg/mL and the IC50 (neutralization) [15] was 0.067 µg/mL. The IC50 (neutralization) [16] was 1.11 µg/mL, the IC50 (neutralization) [17] was 0.015 µg/mL and the IC50 (neutralization) [18] was greater than 50 µg/mL. It also gave an IC50 [19] greater than 50 µg/mL, an IC50 (neutralization) [20] greater than 50 µg/mL and an IC50 (neutralization) [21] of 0.021 µg/mL. It also gave an IC50 (neutralization) [22] greater than 50 µg/mL, an IC50 (neutralization) [23] greater than 50 µg/mL and an IC50 [24] of 0.429 µg/mL. It also gave an IC50 (neutralization) [25] of 2.23 µg/mL, an IC50 (neutralization) [26] greater than 50 µg/mL and an IC50 (neutralization) [27] of 0.056 µg/mL. For the same binder, the IC50 (neutralization) [28] was 0.119 µg/mL, the IC50 (neutralization) [29] was greater than 50 µg/mL and the IC50 [30] was 0.009 µg/mL. The IC50 (neutralization) [31] was greater than 50 µg/mL, the IC50 (neutralization) [32] was 0.029 µg/mL and the IC50 (neutralization) [33] was greater than 50 µg/mL. The IC50 (neutralization) [34] was greater than 50 µg/mL, the IC50 (neutralization) [35] was 3.59 µg/mL and the IC50 [36] was 7.7 µg/mL. The IC50 [37] was 19.3 µg/mL, the IC50 [38] was greater than 50 µg/mL and the IC50 (neutralization) [39] was greater than 50 µg/mL. For the same binder, the IC50 (neutralization) [40] was greater than 50 µg/mL, the IC50 [41] was greater than 50 µg/mL and the IC50 (neutralization) [42] was 0.068 µg/mL. It also gave an IC50 (neutralization) [43] greater than 50 µg/mL, an IC50 [44] greater than 50 µg/mL and an IC50 (neutralization) [45] greater than 50 µg/mL. It also gave an IC50 (neutralization) [46] of 6.04 µg/mL, an IC50 [47] greater than 50 µg/mL and an IC50 (neutralization) [48] greater than 50 µg/mL. For the same binder, the IC50 (neutralization) [49] was 0.6 µg/mL, the IC50 (neutralization) [50] was greater than 50 µg/mL and the IC50 (neutralization) [51] was greater than 50 µg/mL. For the same binder, the IC50 [52] was greater than 50 µg/mL, the IC50 (neutralization) [53] was 0.393 µg/mL and the IC50 [54] was greater than 50 µg/mL. For the same binder, the IC50 (neutralization) [55] was 7.09 µg/mL, the IC50 (neutralization) [56] was greater than 50 µg/mL and the IC50 (neutralization) [57] was 0.015 µg/mL. For the same binder, the IC50 (neutralization) [58] was greater than 50 µg/mL.
